Drawing on patent US20260151494A1, this text covers RLU, Apical domain:HSA and HSA, RLU for 38 molecules.

Where a chain is given by its changes, count along the chain named.

B1: CD71-binding FN3 domain SEQ ID NO: 292 (designed binder)
chain: MSLPAPKNLVVSRVTEDSARLSWTAPDAAFDSFEIGYWENAYKGEAIVLTVPGSERSYDLTGLKPGTEYVVFIGGVKGGVWSVSLSAIFTT
B2: CD71-binding FN3 domain SEQ ID NO: 296 (designed binder)
chain: MSLPAPKNLVVSRVTEDSARLSWTAPDAAFDSFDIGYFELTWYGEAIVLTVPGSERSYDLTGLKPGTEYWVSIGGVKGGIWSSPLSAIFTT
B3: CD71-binding FN3 domain SEQ ID NO: 286 (designed binder)
chain: B2 chain with D34E, G36V, F38A, L40P, T41V, W42R, Y43F, S72Q, I80E
B4: CD71-binding FN3 domain SEQ ID NO: 289 (designed binder)
chain: B2 chain with D34E, G36A, L40I, T41A, Y43L, S72Q, I80A, W81Y, S83T
B5: CD71-binding FN3 domain SEQ ID NO: 293 (designed binder)
chain: MSLPAPKNLVVSRVTEDSARLSWTAPDAAFDSFFIGYLEPQPPGEAIDLYVPGSERSYDLTGLKPGTEYNVTIQGVKGGFPSHPLVATFTT
B6: CD71-binding FN3 domain SEQ ID NO: 295 (designed binder)
chain: B5 chain with H83E
B7: CD71-binding FN3 domain SEQ ID NO: 294 (designed binder)
chain: B5 chain with P43L, D48H, Y50F, H83E, V86I, T88S
B8: CD71-binding FN3 domain SEQ ID NO: 290 (designed binder)
chain: B5 chain with D48H, H83E
B9: CD71-binding FN3 domain of SEQ ID NO: 338 (designed binder, not shown: small tags and cut ends)
chain: B1 chain with W38F, A41L, K43L, V70C, F72Y, G74C, V80R, W81D, V83M, S84P
B10: CD71-binding FN3 domain of SEQ ID NO: 344 (designed binder, not shown: small tags and cut ends)
chain: B1 chain with V10F, V70W, F72Q, V80N, V83A, S84P
B11: CD71-binding FN3 domain of SEQ ID NO: 345 (designed binder, not shown: small tags and cut ends)
chain: B1 chain with R20H, W38F, A41D, K43F, V80K, V83A, S84P
B12: CD71-binding FN3 domain of SEQ ID NO: 340 (designed binder, not shown: small tags and cut ends)
chain: B2 chain with A19S, D34E, L40N, T41L, W42Y, Y43L, S72Q, I80N, S83A
B13: CD71-binding FN3 domain of SEQ ID NO: 339 (designed binder, not shown: small tags and cut ends)
chain: B2 chain with D34E, F38W, L40M, T41S, W42Y, W70G, I80R, S83L
B14: CD71-binding FN3 domain of SEQ ID NO: 334 (designed binder, not shown: small tags and cut ends)
chain: B2 chain with D34E, G36A, F38Q, T41S, W42L, Y43W, S72Q, S86V, I88S
B15: CD71-binding FN3 domain of SEQ ID NO: 336 (designed binder, not shown: small tags and cut ends)
chain: MSLPAPKNLVVSRVTEDSARLSWTAPDAAFDSFNIMYHEHYDNGEAIVLTVPGSERSYDLTGLKPGTEYSVVINGVKGGPHSAPLSAIFTT
B16: CD71-binding FN3 domain of SEQ ID NO: 335 (designed binder, not shown: small tags and cut ends)
chain: B5 chain with H83L
B17: CD71-binding FN3 domain of SEQ ID NO: 337 (designed binder, not shown: small tags and cut ends)
chain: B5 chain with D48H, H83I, V86I, T88S
B18: CD71-binding FN3 domain of SEQ ID NO: 343 (designed binder, not shown: small tags and cut ends)
chain: B5 chain with D48A, Y50W, H83E
B19: CD71-binding FN3 domain of SEQ ID NO: 342 (designed binder, not shown: small tags and cut ends)
chain: B5 chain with D48V, Y50T, H83E, V86I, T88N
B20: CD71-binding FN3 domain of SEQ ID NO: 341 (designed binder, not shown: small tags and cut ends)
chain: B5 chain with D48E, H83L, T88I
B21: CD71-binding FN3 domain of SEQ ID NO: 105 (designed binder, not shown: small tags and cut ends)
chain: MLPAPKNLVVSRVTEDSARLSWTAPDAAFDSFHIVYHEPRPSGEAIWLWVPGSERSYDLTGLKPGTEYEVGIVSVKGGDLSVPLSAIFTT
B22: CD71-binding FN3 domain of SEQ ID NO: 110 (designed binder, not shown: small tags and cut ends)
chain: B21 chain with W47Y, W49E, S85R, I87H
B23: CD71-binding FN3 domain of SEQ ID NO: 114 (designed binder, not shown: small tags and cut ends)
chain: B21 chain with W49F
B24: CD71-binding FN3 domain of SEQ ID NO: 117 (designed binder, not shown: small tags and cut ends)
chain: MLPAPKNLVVSRVTEDSARLSWTAPDAAFDSFFIGYLEPQPPGEAIWLLVPGSERSYDLTGLKPGTEYNVTIQGVKGGFPSTPLSAIFTT
B25: CD71-binding FN3 domain of SEQ ID NO: 112 (designed binder, not shown: small tags and cut ends)
chain: B24 chain with W47D, L49W, T82M
B26: CD71-binding FN3 domain of SEQ ID NO: 109 (designed binder, not shown: small tags and cut ends)
chain: B24 chain with W47I, L49H, T82L, S85N, I87N
B27: CD71-binding FN3 domain of SEQ ID NO: 104 (designed binder, not shown: small tags and cut ends)
chain: B24 chain with W47H, L49I, L62Q, T82D, S85V, I87S
B28: CD71-binding FN3 domain of SEQ ID NO: 115 (designed binder, not shown: small tags and cut ends)
chain: B24 chain with W47D, L49Y, T66I, T82L, S85Q, I87H
B29: CD71-binding FN3 domain of SEQ ID NO: 107 (designed binder, not shown: small tags and cut ends)
chain: B24 chain with W47G, L49Q, T82M
B30: CD71-binding FN3 domain of SEQ ID NO: 113 (designed binder, not shown: small tags and cut ends)
chain: B24 chain with W47Y, T82D
B31: CD71-binding FN3 domain of SEQ ID NO: 111 (designed binder, not shown: small tags and cut ends)
chain: B24 chain with W47S, L49W, T82I, S85W
B32: CD71-binding FN3 domain of SEQ ID NO: 100 (designed binder, not shown: small tags and cut ends)
chain: MLPAPKNLVVSRVTEDSARLSWTAPDAAFDSFYIAYAEPRPDGEAILLLVPGSERSYDLTGLKPGTEYSVLIHGVKGGLLSSPLVASFTT
B33: CD71-binding FN3 domain of SEQ ID NO: 103 (designed binder, not shown: small tags and cut ends)
chain: B32 chain with L47I, L49G, V85S, S87Y, F88S
B34: CD71-binding FN3 domain of SEQ ID NO: 116 (designed binder, not shown: small tags and cut ends)
chain: B32 chain with V85I, S87G
B35: CD71-binding FN3 domain of SEQ ID NO: 106 (designed binder, not shown: small tags and cut ends)
chain: B32 chain with A28V, L47G, L49Y, V85T
B36: CD71-binding FN3 domain of SEQ ID NO: 108 (designed binder, not shown: small tags and cut ends)
chain: B32 chain with L49Q, S87K
B37: CD71-binding FN3 domain of SEQ ID NO: 102 (designed binder, not shown: small tags and cut ends)
chain: MLPAPKNLVVSRVTEDSARLSWTAPDAAFDSFDIGYTEYGGYGEAIILQVPGSERSYDLTGLKPGTEYWVLIQGVKGGGSSVPLVAYFTT
B38: CD71-binding FN3 domain of SEQ ID NO: 101 (designed binder, not shown: small tags and cut ends)
chain: MLPAPKNLVVSRVTEDSARLSWTAPDAAFDSFGIGYWERRWYGEAIVLTVPGSERSYDLTGLKPGTEYEVTIRGVKGGGYSGPLSAIFTT

One experiment deals with apical domain of CD71 (Screen 3: 'cynomolgus apical domain of human CD71') (cynomolgus (as paragraph 454 words it; ambiguous)). Nature of the experiment: primary ELISA.
B1 showed an RLU of 5.29e+06 RLU.

With B2, the RLU was found to be 4.82e+06 RLU.

B3: the RLU was 5.31e+06 RLU.

Molecule B4 had an RLU of 5.2e+06 RLU.

In the case of B5, the RLU was found to be 6.72e+06 RLU.

As for B6, the RLU was 6.71e+06 RLU.

For B7, the RLU was found to be 7.4e+06 RLU.

With B8, the RLU turned out to be 6.87e+06 RLU.

For a further experiment the target is unchanged. As to the kind of experiment: primary ELISA, RLU ratio to HSA.
As for B1, the Apical domain:HSA came out at 355.

On to B2, for which the Apical domain:HSA came out at 141.

As for B3, the Apical domain:HSA is 262.

Take B4: the Apical domain:HSA is 112.

On to B5, for which the Apical domain:HSA was 605.

As to B6, the Apical domain:HSA is 474.

For the molecule B7, the Apical domain:HSA is 245.

Regarding B8, the Apical domain:HSA stood at 158.

Another experiment deals with human serum albumin (human) (UniProt P02768). Nature of the experiment: primary ELISA screen, HSA negative control.
human serum albumin (human), sequence (P02768 25-609 limits assumed): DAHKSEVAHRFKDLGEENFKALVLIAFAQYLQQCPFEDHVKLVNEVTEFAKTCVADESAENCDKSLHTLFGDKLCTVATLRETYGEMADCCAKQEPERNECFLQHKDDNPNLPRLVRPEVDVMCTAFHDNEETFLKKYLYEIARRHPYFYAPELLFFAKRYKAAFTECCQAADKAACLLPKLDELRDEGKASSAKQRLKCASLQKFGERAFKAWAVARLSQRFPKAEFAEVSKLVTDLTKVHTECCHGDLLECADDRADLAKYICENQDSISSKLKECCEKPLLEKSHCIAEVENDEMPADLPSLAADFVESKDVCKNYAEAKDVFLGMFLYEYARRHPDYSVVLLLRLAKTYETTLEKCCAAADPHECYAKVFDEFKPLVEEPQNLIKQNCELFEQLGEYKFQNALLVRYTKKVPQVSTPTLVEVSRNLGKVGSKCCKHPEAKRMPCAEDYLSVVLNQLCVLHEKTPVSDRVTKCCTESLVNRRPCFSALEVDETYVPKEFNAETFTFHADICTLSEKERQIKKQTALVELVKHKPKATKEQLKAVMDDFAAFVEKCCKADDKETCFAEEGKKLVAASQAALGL
B9 had an RLU of 40200 RLU.

In the case of B10, the RLU worked out at 36900 RLU.

Molecule B11 gave an RLU of 23600 RLU.

B12 had an RLU of 28300 RLU.

As for B13, the RLU worked out at 7050 RLU.

For B14, the RLU came out at 14400 RLU.

For B15, the RLU turned out to be 16800 RLU.

Take B16: the RLU is 57300 RLU.

Molecule B17 came in with an RLU of 17200 RLU.

For B18, the RLU was found to be 30400 RLU.

B19 gave an RLU of 425000 RLU.

Consider B20, for which the RLU worked out at 58000 RLU.

Another experiment has the same target. Nature of the experiment: primary ELISA of colonies, luminescence; negative control antigen.
B21 had an HSA, RLU of 3000 RLU.

As to B22, the HSA, RLU stood at 2500 RLU.

In turn, B23 gave an HSA, RLU of 11600 RLU.

Molecule B24 gave an HSA, RLU of 3750 RLU.

On to B25, for which the HSA, RLU was 2650 RLU.

Regarding B26, the HSA, RLU was determined as 3250 RLU.

B27 showed an HSA, RLU of 29400 RLU.

With B28, the HSA, RLU is 5200 RLU.

B29 showed an HSA, RLU of 3250 RLU.

As for B30, the HSA, RLU was 2800 RLU.

Consider B31, for which the HSA, RLU is 2600 RLU.

In the case of B32, the HSA, RLU amounted to 7750 RLU.

Take B33: the HSA, RLU was 18200 RLU.

B34 had an HSA, RLU of 2750 RLU.

On to B35, for which the HSA, RLU worked out at 2550 RLU.

The molecule B36 showed an HSA, RLU of 3350 RLU.

B37 returned an HSA, RLU of 4550 RLU.

B38 registered an HSA, RLU of 4350 RLU.
